Source: patent US20140294866A1 (Amgen, published 2014)
Substitutions are numbered along the chain they refer to. Values belong to the binder of their own block, whether it stands above or below them.

Key:
[1] = biological target: T1, recombinant mature myostatin (human, produced in E. coli) (human, UniProt O14793 267-375); test: KinExA solution based assay or BIAcore assay (not said which)
T1 construct: mature; also called GDF-8
T1 sequence (looked up): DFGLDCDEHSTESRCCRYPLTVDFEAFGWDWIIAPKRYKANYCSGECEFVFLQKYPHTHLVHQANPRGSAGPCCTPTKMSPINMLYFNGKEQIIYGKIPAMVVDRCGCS

[2] = biological target: T1, recombinant mature myostatin (human, …); test: cell-based or functional assay
[3] = biological target: T1, recombinant mature myostatin (human, …); test: cell-based or functional assay; remark: listed apart in the source

B1: 2x mTN8-19-7 peptibody (Fc fusion)
chain: GGGGGAQLADHGQCIRWPWMCPPEGWELEGSGSATGGSGSTASSGSGSATGLADHGQCIRWPWMCPPEGWELE
- Kd [1]: 12 pM

B2: recombinant human activin receptor IIB/Fc chimera (R&D Systems) (Fc fusion, UniProt Q13705 19-134, looked up, not shown: a dimerising Fc or GST)
chain: SGRGEAETRECIYYNANWELERTNQSGLERCEGEQDKRLHCYASWRNSSGTIELVKKGCWLDDFNCYDRQECVATEENPQVYFCCCEGNFCNERFTHLPEAGGPEVTYEPPPTAPT
- IC50 (nM), C2C12 pMARE-luc myostatin activity assay [2]: ~83 nM

B5: TN8-19 peptide (peptide)
peptide: QGHCTRWPWMCPPY
- IC50 (read off the curve); luciferase activity, C2C12 pMARE-luc reporter cells, 4 nM myostatin [3]: ~20 µM

Other lines, results leading:

- Kd [1]: 6 pM
B3: 2x mTN8-19-21 peptibody (Fc fusion)
chain: GGGGGAQSEYQGLCTRWPWMCPPQGWKLEGSGSATGGSGSTASSGSGSATGSEYQGLCTRWPWMCPPQGWKLE
notes: Human Fc form

- Kd [1]: 3 pM
B4: 2x mTN8-19-33 peptibody (Fc fusion)
chain: B3 chain with S8P, Y10S, L13H, K27G, S52P, Y54S, L57H, K71G
